Numbered stars: 1 amine (or outer) side, 2 acyl side, 3 side chain; on linkers, the order of the positions; unused ones are H or OH. Bridge positions count the residues as written; N and C are the ends. Side chains are listed from the residue outwards. Ends that are not written are not given here. * marks the point of attachment. C20 diacid = O=C(O)CCCCCCCCCCCCCCCCCCC(=O)*; γGlu = O=C(O)[C@H](CCC(=O)[*:2])N[*:1]
T1: human calcitonin receptor (human, UniProt P30988 25-474)
T1 construct: whole, on cells; Cell membranes from the stably transfected cell line (Assay VII); also called hCTR; hCT
T1 sequence (looked up): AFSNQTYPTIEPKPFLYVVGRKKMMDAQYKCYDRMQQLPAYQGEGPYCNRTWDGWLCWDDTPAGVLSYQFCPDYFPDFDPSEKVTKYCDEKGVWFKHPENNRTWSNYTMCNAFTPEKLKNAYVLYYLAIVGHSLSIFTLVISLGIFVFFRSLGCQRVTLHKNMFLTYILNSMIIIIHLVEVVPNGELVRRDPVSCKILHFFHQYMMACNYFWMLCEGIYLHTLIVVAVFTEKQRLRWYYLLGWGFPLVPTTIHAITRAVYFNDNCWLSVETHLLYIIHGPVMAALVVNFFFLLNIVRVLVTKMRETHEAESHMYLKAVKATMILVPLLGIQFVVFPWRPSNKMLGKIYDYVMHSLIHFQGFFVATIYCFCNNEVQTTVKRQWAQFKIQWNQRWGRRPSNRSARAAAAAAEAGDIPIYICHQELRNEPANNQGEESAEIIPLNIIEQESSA

T2: rat calcitonin receptor (rat, UniProt P32214 25-516)
T2 construct: whole, on cells; In cell membranes prepared from transiently transfected BHK tk'ts 13 cells (Assay VIII); also called rCTR; rat calcitonin (a) receptor
T2 sequence (looked up): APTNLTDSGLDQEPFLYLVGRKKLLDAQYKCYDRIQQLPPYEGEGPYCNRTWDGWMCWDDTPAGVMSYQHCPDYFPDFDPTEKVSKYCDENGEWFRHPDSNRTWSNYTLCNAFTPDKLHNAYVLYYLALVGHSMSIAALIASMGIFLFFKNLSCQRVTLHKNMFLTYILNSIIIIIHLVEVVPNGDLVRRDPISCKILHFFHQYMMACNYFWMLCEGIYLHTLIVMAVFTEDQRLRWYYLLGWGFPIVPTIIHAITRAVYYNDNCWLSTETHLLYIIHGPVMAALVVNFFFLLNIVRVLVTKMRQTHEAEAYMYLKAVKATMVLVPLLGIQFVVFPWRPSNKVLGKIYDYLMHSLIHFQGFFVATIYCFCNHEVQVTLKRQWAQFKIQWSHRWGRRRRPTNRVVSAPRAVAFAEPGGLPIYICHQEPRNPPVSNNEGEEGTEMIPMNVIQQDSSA

T3: rat amylin receptor (rat calcitonin receptor + rat RAMP 3) (rat, UniProt P32214 25-516; Q9JJ73 23-147)
T3 construct: whole, on cells; Receptor complex in cell membranes prepared from transiently transfected BHK tk'ts 13 cells (Assay VI); also called rAmylin-R; rat amylin 3(a) receptor
T3 sequence (looked up) 1: T2 sequence (looked up)
T3 sequence (looked up) 2: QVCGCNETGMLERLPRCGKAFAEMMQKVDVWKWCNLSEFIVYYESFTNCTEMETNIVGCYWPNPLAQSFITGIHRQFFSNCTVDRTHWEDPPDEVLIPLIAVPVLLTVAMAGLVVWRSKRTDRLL

B1: N^ε1-[(4S)-4-carboxy-4-(19-carboxynonadecanoylamino)butanoyl]-[Asp14,Arg17,Pro21,Pro27,Pro34,Arg35]-h-amylin (peptide)
peptide: K([γGlu-C20 diacid])CNTATCATQRLADFLRHSSPNFGAIPSSTNVGPRTY-NH2
modifications: disulfide 2-7; N-terminus assumed
SMILES: CC[C@H](C)[C@H](NC(=O)[C@H](C)NC(=O)CNC(=O)[C@H](Cc1ccccc1)NC(=O)[C@H](CC(N)=O)NC(=O)[C@@H]1CCCN1C(=O)[C@H](CO)NC(=O)[C@H](CO)NC(=O)[C@H](Cc1c[nH]cn1)NC(=O)[C@H](CCCNC(=N)N)NC(=O)[C@H](CC(C)C)NC(=O)[C@H](Cc1ccccc1)NC(=O)[C@H](CC(=O)O)NC(=O)[C@H](C)NC(=O)[C@H](CC(C)C)NC(=O)[C@H](CCCNC(=N)N)NC(=O)[C@H](CCC(N)=O)NC(=O)[C@@H](NC(=O)[C@H](C)NC(=O)[C@@H]1CSSC[C@H](NC(=O)[C@@H](N)CCCCNC(=O)CC[C@H](NC(=O)CCCCCCCCCCCCCCCCCCC(=O)O)C(=O)O)C(=O)N[C@@H](CC(N)=O)C(=O)N[C@@H]([C@@H](C)O)C(=O)N[C@@H](C)C(=O)N[C@@H]([C@@H](C)O)C(=O)N1)[C@@H](C)O)C(=O)N1CCC[C@H]1C(=O)N[C@@H](CO)C(=O)N[C@@H](CO)C(=O)N[C@H](C(=O)N[C@@H](CC(N)=O)C(=O)N[C@H](C(=O)NCC(=O)N1CCC[C@H]1C(=O)N[C@@H](CCCNC(=N)N)C(=O)N[C@H](C(=O)N[C@@H](Cc1ccc(O)cc1)C(N)=O)[C@@H](C)O)C(C)C)[C@@H](C)O
B2: N^ε1-[(4S)-4-carboxy-4-(19-carboxynonadecanoylamino)butanoyl]-[Asp14,Arg17,Pro21,Pro27,Pro34,Glu35]-h-amylin (peptide)
peptide: K([γGlu-C20 diacid])CNTATCATQRLADFLRHSSPNFGAIPSSTNVGPETY-NH2
modifications: disulfide 2-7; N-terminus assumed
SMILES: CC[C@H](C)[C@H](NC(=O)[C@H](C)NC(=O)CNC(=O)[C@H](Cc1ccccc1)NC(=O)[C@H](CC(N)=O)NC(=O)[C@@H]1CCCN1C(=O)[C@H](CO)NC(=O)[C@H](CO)NC(=O)[C@H](Cc1c[nH]cn1)NC(=O)[C@H](CCCNC(=N)N)NC(=O)[C@H](CC(C)C)NC(=O)[C@H](Cc1ccccc1)NC(=O)[C@H](CC(=O)O)NC(=O)[C@H](C)NC(=O)[C@H](CC(C)C)NC(=O)[C@H](CCCNC(=N)N)NC(=O)[C@H](CCC(N)=O)NC(=O)[C@@H](NC(=O)[C@H](C)NC(=O)[C@@H]1CSSC[C@H](NC(=O)[C@@H](N)CCCCNC(=O)CC[C@H](NC(=O)CCCCCCCCCCCCCCCCCCC(=O)O)C(=O)O)C(=O)N[C@@H](CC(N)=O)C(=O)N[C@@H]([C@@H](C)O)C(=O)N[C@@H](C)C(=O)N[C@@H]([C@@H](C)O)C(=O)N1)[C@@H](C)O)C(=O)N1CCC[C@H]1C(=O)N[C@@H](CO)C(=O)N[C@@H](CO)C(=O)N[C@H](C(=O)N[C@@H](CC(N)=O)C(=O)N[C@H](C(=O)NCC(=O)N1CCC[C@H]1C(=O)N[C@@H](CCC(=O)O)C(=O)N[C@H](C(=O)N[C@@H](Cc1ccc(O)cc1)C(N)=O)[C@@H](C)O)C(C)C)[C@@H](C)O
B3: N^ε1-[(4S)-4-carboxy-4-[[(4S)-4-carboxy-4-(19-carboxynonadecanoylamino)butanoyl]amino]butanoyl]-[Asp14,Arg17,Pro21,Pro27,Pro34,Glu35]-h-amylin (peptide)
peptide: K([γGlu-γGlu-C20 diacid])CNTATCATQRLADFLRHSSPNFGAIPSSTNVGPETY-NH2
modifications: disulfide 2-7; N-terminus assumed
SMILES: CC[C@H](C)[C@H](NC(=O)[C@H](C)NC(=O)CNC(=O)[C@H](Cc1ccccc1)NC(=O)[C@H](CC(N)=O)NC(=O)[C@@H]1CCCN1C(=O)[C@H](CO)NC(=O)[C@H](CO)NC(=O)[C@H](Cc1c[nH]cn1)NC(=O)[C@H](CCCNC(=N)N)NC(=O)[C@H](CC(C)C)NC(=O)[C@H](Cc1ccccc1)NC(=O)[C@H](CC(=O)O)NC(=O)[C@H](C)NC(=O)[C@H](CC(C)C)NC(=O)[C@H](CCCNC(=N)N)NC(=O)[C@H](CCC(N)=O)NC(=O)[C@@H](NC(=O)[C@H](C)NC(=O)[C@@H]1CSSC[C@H](NC(=O)[C@@H](N)CCCCNC(=O)CC[C@H](NC(=O)CC[C@H](NC(=O)CCCCCCCCCCCCCCCCCCC(=O)O)C(=O)O)C(=O)O)C(=O)N[C@@H](CC(N)=O)C(=O)N[C@@H]([C@@H](C)O)C(=O)N[C@@H](C)C(=O)N[C@@H]([C@@H](C)O)C(=O)N1)[C@@H](C)O)C(=O)N1CCC[C@H]1C(=O)N[C@@H](CO)C(=O)N[C@@H](CO)C(=O)N[C@H](C(=O)N[C@@H](CC(N)=O)C(=O)N[C@H](C(=O)NCC(=O)N1CCC[C@H]1C(=O)N[C@@H](CCC(=O)O)C(=O)N[C@H](C(=O)N[C@@H](Cc1ccc(O)cc1)C(N)=O)[C@@H](C)O)C(C)C)[C@@H](C)O
B4: N^ε1-[(4S)-4-carboxy-4-[[(4S)-4-carboxy-4-(19-carboxynonadecanoylamino)butanoyl]amino]butanoyl]-[Asp14,Arg17,Pro21,Pro27,Pro34,Arg35]-h-amylin (peptide)
peptide: K([γGlu-γGlu-C20 diacid])CNTATCATQRLADFLRHSSPNFGAIPSSTNVGPRTY-NH2
modifications: disulfide 2-7
notes: also called compound 130

These binders were tested against T1, human calcitonin receptor (assay: ratio of binding IC50s: human calcitonin receptor (Assay VII) over human amylin receptor (Assay V)).
Protocol: The resulting pellet was resuspended, homogenized and centrifuged (20.000 rpm, 15 min) in a buffer containing 20 mM Na-HEPES and 0.1 mM EDTA (pH 7.4, buffer 2). The resulting pellet was resuspended in buffer 2 and protein concentration was measured (BCA protein Assay, Pierce). The homogenate was kept cold during the whole procedure. The membranes were kept at −80° C. until use. The assay was performed in a 384 well Optiplate (PerkinElmer) in a total volume of 40 ul. Membranes were mixed with SPA beads. Final concentration of membranes 35 ng/μL final and SPA beads was 0.05 mg/well. Test-compounds were dissolved in DMSO and further diluted in assay buffer (50 mM Hepes, pH 7.4, 1 mM CaCl2, 5 mM MgCl₂, 0.1% OA and 0.02% Tween20). […] The final mixture was incubated with shaking at 400 rpm for 120 min at 25° C. prior to centrifugation (1500 rpm, 10 min). Samples were analyzed on TopCounter™ (Packard). The IC₅₀ was calculated using (one site binding competition analysis) GraphPad Prism5 as a measure of receptor affinity.
Membranes were prepared in the following way; the cells were rinsed with PBS and incubated with Versene for approximately 5 min before harvesting. The cells were flushed with PBS and the cell-suspension was centrifuged for 5 min at 1000 rpm. Cells were homogenized (Ultrathurrax) in a buffer containing 20 mM Na-HEPES and 10 mM EDTA (pH 7.4) and centrifuged at 20.000 rpm for 15 min. The resulting pellet was resuspended, homogenized and centrifuged (20.000 rpm, 15 min) in a buffer containing 20 mM Na-HEPES and 0.1 mM EDTA (pH 7.4, buffer 2). The resulting pellet was resuspended in buffer 2 and protein concentration was measured (BCA protein Assay, Pierce). The homogenate was kept cold during the whole procedure. The membranes were kept at −80° C. until use. Assay was performed in a 384 well Optiplate (PerkinElmer) in a total volume of 40 ul. Membranes were mixed with SPA beads.

In order of rising “Ratio hCT/hAmylin binding” value:
1. B2  16.7
2. B3  49.8
3. B1  151
4. B4  280

These binders were tested against T2, rat calcitonin receptor (assay: ratio of binding IC50s: rat calcitonin receptor (Assay VIII) over rat amylin receptor (Assay VI)).

In order of falling “Ratio rCT/rAmylin binding” value:
1. B4  240
2. B1  116
3. B3  98.5
4. B2  62

The binders below were run against T3, rat amylin receptor (rat calcitonin …) (assay: SPA competition binding, displacement of 125I-rat amylin from membranes of BHK tk'ts 13 cells with rat calcitonin receptor + rat RAMP 3 (Assay VI)).
Protocol: The binding assay was performed using scintillation proximity assay (SPA) beads (RPNQ0001) from PerkinElmer and cell membranes from the Amylin 3(a)/CRE-luc cells (as described in Assay (II)) were used. Membranes were prepared in the following way; the cells were rinsed with PBS and incubated with Versene for approximately 5 min before harvesting. The cells were flushed with PBS and the cell-suspension was centrifuged for 5 min at 1000 rpm. Cells were homogenized (ultrathurrax) in a buffer containing 20 mM Na-HEPES and 10 mM EDTA (pH 7.4) and centrifuged at 20.000 rpm for 15 min. The resulting pellet was resuspended, homogenized and centrifuged (20.000 rpm, 15 min) in a buffer containing 20 mM Na-HEPES and 0.1 mM EDTA (pH 7.4, buffer 2). The resulting pellet was resuspended in buffer 2 and protein concentration was measured (BCA protein Assay, Pierce). The homogenate was kept cold during the whole procedure. The membranes were kept at −80° C. until use. The assay was performed in a 384 well Optiplate (PerkinElmer) in a total volume of 40 ul. Membranes were mixed with SPA beads. Final concentration of membranes 35 ng/μL final and SPA beads was 0.05 mg/well. Test-compounds were dissolved in DMSO and further diluted in assay buffer (50 mM Hepes, pH 7.4, 1 mM CaCl2, 5 mM MgCl₂, 0.1% OA and 0.02% Tween20). […] The final mixture was incubated with shaking at 400 rpm for 120 min at 25° C. prior to centrifugation (1500 rpm, 10 min). Samples were analyzed on TopCounter™ (Packard). The IC₅₀ was calculated using (one site binding competition analysis) GraphPad Prism5 as a measure of receptor affinity.
Cells were grown in DMEM with 10% FBS and 1% Pen/Strep. Approximately 48 hours after transfection, the cells were harvested and membranes were prepared.

In order of rising IC50:
1. B2  0.3 nM
2. B3  0.324 nM
3. B1  0.504 nM
4. B4  0.93 nM

The binders below were run against T2, rat calcitonin receptor (assay: SPA competition binding, displacement of 125I-Calcitonin from membranes of BHK tk'ts 13 cells with rat calcitonin receptor (Assay VIII)).

In order of falling IC50:
1. B4  223 nM
2. B1  58.5 nM
3. B3  31.9 nM
4. B2  18.6 nM
